Experimental findings from patent US20020001840A1 are described below.

This experiment concerns the target purified αvβ3 integrin (UniProt P06756). Nature of the experiment: cell-based or functional assay.

Sequence of purified αvβ3 integrin (P06756 31-1048, form in doubt, chain 1 of 2): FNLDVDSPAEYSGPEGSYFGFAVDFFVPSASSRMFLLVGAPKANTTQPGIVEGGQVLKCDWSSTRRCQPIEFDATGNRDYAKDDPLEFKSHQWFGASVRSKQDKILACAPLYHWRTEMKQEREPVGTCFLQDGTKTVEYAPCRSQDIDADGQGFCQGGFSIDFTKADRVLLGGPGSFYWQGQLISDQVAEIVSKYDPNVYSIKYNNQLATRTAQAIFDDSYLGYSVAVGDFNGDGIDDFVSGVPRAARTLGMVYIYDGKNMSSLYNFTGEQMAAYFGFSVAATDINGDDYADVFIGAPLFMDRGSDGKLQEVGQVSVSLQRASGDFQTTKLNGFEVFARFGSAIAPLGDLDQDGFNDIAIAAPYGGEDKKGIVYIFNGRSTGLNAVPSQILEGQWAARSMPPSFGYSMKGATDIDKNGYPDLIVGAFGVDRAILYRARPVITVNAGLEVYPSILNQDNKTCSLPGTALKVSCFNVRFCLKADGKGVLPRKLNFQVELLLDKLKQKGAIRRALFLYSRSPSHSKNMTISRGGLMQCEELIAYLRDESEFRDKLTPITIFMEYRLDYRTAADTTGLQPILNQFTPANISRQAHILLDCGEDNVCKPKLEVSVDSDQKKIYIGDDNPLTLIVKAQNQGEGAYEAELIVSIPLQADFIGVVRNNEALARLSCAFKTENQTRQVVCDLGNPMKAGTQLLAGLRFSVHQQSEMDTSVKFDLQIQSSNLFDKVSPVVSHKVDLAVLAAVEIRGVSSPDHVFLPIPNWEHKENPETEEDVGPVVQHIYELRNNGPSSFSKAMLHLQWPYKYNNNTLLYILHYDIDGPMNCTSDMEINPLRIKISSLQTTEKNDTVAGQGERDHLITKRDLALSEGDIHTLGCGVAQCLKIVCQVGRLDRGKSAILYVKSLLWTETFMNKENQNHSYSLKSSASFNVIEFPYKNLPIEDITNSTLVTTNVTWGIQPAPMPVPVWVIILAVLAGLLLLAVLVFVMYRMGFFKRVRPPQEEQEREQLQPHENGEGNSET
Sequence of purified αvβ3 integrin (P05106 27-788, form in doubt, chain 2 of 2, further chain): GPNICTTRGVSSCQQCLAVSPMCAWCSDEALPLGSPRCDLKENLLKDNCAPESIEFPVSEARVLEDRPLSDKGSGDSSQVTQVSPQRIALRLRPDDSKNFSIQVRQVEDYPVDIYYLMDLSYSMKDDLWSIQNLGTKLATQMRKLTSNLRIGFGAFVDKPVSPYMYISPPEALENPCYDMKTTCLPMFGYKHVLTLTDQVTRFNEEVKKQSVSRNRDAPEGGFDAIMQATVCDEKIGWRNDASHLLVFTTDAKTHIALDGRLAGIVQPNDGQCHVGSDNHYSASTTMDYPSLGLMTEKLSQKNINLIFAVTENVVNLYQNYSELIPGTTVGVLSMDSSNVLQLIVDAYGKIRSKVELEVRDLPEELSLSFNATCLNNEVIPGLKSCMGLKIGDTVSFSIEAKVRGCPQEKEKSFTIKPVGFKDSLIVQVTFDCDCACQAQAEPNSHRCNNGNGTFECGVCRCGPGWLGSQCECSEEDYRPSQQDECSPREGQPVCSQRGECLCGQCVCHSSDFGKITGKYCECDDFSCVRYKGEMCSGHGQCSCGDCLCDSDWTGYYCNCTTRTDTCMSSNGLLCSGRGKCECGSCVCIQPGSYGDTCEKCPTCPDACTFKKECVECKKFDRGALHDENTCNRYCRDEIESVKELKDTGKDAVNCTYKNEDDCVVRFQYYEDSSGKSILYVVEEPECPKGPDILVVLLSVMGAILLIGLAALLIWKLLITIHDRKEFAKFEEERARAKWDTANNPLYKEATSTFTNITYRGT

The substance “mutADAM 23 disintegrin-like domain (E466A) expressed as a fusion protein with GST (from UniProt O75077 498-588)” registered a cell adhesion promoting effect, SH-Sy5y neuroblastoma cells of 40%.
